Reference: patent publication US20240361320A1

Target: SARS-CoV-2 3CL^pro enzyme (Recombinant derived from Escherichia coli, ab277614, ABCAM; SEQ ID NO:2) (SARS-CoV-2) (UniProt P0DTC1)

3CL^pro specific antibody (Rabbit-derived, NBP3-07062, Novus Biologicals; binding to SEQ ID NO:3)
time to maximal binding: 20 s
